Laboratory results from publication PMC12775136 (2025).

Biological target: T1, 3′hExofl (human, UniProt Q8IV48 1-349)
T1 chain: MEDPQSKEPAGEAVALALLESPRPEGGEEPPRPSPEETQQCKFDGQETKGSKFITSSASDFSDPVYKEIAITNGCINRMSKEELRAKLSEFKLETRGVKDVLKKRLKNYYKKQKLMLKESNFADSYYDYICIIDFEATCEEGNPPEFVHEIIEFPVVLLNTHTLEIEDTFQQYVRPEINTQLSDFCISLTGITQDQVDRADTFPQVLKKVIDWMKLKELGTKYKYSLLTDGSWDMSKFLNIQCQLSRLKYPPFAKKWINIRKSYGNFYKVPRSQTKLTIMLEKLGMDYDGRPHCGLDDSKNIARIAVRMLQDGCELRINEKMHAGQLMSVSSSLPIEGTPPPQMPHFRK
Assay: NMR

B1: UPF2-AL (domain or fragment)
chain: NDKDSKDSMTEGENLEEDEEEEEGGAETEEQSGNESEVNEPEEEEGSDNDDDEGEEEEEENTDYLTDSNKENETDEENTEVMIKGGGLKH
  Kd: 200 µM
